From patent publication US20050058639A1 (AstraZeneca / MedImmune, published 2005)

T1: human RANTES (human, UniProt P13501 24-91)
T1 construct: also called hRANTES
T1 sequence (looked up): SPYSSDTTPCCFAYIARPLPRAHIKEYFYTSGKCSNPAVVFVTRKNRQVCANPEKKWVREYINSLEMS

T2: human GRO/MGSA (human, UniProt P09341 35-107)
T2 construct: also called hGRO/MGSA; GRO-alpha
T2 sequence (looked up): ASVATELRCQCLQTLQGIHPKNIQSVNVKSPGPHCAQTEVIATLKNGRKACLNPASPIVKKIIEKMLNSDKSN

T3: human MIP-1-alpha (human, UniProt P10147 24-92, limits assumed)
T3 construct: also called hMIP-1-alpha
T3 sequence (looked up): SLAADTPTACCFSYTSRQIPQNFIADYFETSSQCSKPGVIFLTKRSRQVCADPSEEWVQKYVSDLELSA

T4: recombinant human MCP-2 (human, UniProt P80075 24-99)
T4 construct: also called rhMCP-2
T4 sequence (looked up): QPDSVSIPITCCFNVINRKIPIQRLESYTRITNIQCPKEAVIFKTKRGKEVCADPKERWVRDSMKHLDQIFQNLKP

B1: anti-MCP-1 mAb 5.1 (antibody, V domains shown)
VH: EQSGGGVVQPGRSLRLSCAASGFTFSSYGMHWVRQAPGKGLEWVAVIWYDGNNKYYADSVKGRFTISRDTSKNTLYLQMNSLRAEDTAVYYCARDSSSYYYYGMDVWGQGTTVTVSS
VL: NFMLTQPHSVSESPGKTVTISCTRSSGSIASNYVQWFQQRPGSSPTTVIYEDDQRPSGVPDRFCGSIDSSSNSASLTISGLRTEDEADYYCQSYDSSNHVVFGGGTKLTVLG
B2: anti-MCP-1 mAb 1.7.1 (antibody, human IgG2, kappa, V domains shown)
VH: QVQLVQSGAEVKKPGASVKVSCKVSGYTLTELSMHWVRQAPGKGLEWMGGFDPEDGETIYAQKFQGRVSMTEDTSTDTAYMELSSLRSEDTAVYFCATNEFWSGYFDYWGQGTLVTVSS
VL: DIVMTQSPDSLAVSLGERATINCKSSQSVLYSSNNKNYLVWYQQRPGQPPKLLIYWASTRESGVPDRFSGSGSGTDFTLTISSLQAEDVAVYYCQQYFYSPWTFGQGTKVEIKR
notes: also called 1.7.2
B3: anti-MCP-1 mAb 2.3.1 (antibody, V domains shown)
VH: QVQLVQSGAEVKKPGASVKVSCKVSGYTLTELSMHWVRQAPGKGLEWMGGFDPEDDETIYAQKFQGRVTMTEDTSTHTAYMELSSLRSEDTAVYYCATHDFWSAYFYYWGQGTLVTVSS
VL: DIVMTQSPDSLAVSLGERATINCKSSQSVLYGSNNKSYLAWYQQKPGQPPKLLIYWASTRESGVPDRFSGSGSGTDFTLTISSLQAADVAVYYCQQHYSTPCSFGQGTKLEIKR
B4: anti-MCP-1 mAb 4.7.1 (antibody, V domains shown)
VH: QVQLVQSGAEVKKPGASVKVSCKVSGYTLTELSMHWVRQAPGKGLEWMGGFDPEDGETIYAQKFQGRVTMTEDTSTDTAYMELSSLRSEDTAVYYCATDDFWSGYFDYWGQGTLVTVSS
VL: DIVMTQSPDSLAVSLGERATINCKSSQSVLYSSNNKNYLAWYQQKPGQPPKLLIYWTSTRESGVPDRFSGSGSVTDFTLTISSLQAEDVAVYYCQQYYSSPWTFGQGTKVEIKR
B5: anti-MCP-1 mAb 4.8.1 (antibody, V domains shown)
VH: QVQLVQSGAEVKKPGASVKVSCKVSGYTLTELSMHWVRQAPGKGLEWMGGFDPEDGETIYAQKFQGRVTMTEDTSTDTAYMELSSLRTEDTAVYYCTTDDFWSGYFDYWGQGTLVTVSS
VL: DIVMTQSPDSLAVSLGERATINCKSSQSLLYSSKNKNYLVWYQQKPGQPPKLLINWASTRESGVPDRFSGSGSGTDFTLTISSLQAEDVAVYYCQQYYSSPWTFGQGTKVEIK
B6: anti-MCP-1 mAb 3.7.1 (antibody, human IgG2, kappa, V domains shown)
VH: QVQLVQSGAEVKKPGASVKVSCKVSGYTLTELSMHWVRQTPGKGLEWMGGFDPEDGETIYAQKFQDRVTMTEDTSTDTAYMELSSLRSEDTAVYYCATNDFWTGYYDYWGQGTLVTVSS
VL: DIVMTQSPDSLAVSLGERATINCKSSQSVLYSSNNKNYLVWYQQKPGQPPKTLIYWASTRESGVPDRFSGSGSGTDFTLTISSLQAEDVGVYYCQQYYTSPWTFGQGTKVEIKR
notes: also called 3.7.2
B7: anti-MCP-1 mAb 1.4.1 (antibody, V domains shown)
VH: QSGPGLVKPSQTLSLTCAISGDSVSSNSAAWNWIRQSPSRGLEWLGRTYYRSKWYSDHAVSVRSRITIYPDTSKNQFSLQLNSVTPEDTAVYYCARDRISGTYVGMDVWGQGTTVTVSS
VL: DIGMTQTPLSLSVTPGQPASISCKSSQSLLYSDGKTYLYWYLQKPGQPPQHLIYEVSNRFSGVPDRFSGSGSGTDFTLKISRVEADDVGVYYCMQTIHLPLTFGGGTKVEIQR

Experiments:
[1] = target: T5, human monocyte chemo-attractant protein-1 (MCP-1) (human, UniProt P13500 24-99); experiment: ELISA, hybridoma supernatant on coated MCP-1
T5 construct: 76-residue recombinant protein from E. coli, bought (PeproTech); also called hMCP-1(MCAF); human MCP-1
T5 sequence (P13500 24-99): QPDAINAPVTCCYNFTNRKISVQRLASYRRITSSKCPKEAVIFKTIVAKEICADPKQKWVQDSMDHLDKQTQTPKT
Method: (§1) Selection of candidate antibodies for ELISA. After 14 days of culture, hybridoma supernatants were screened for MCP-1-specific monoclonal antibodies. The ELISA plates (Fisher, Cat. No. 12-565-136) were coated with 50 μl/well of MCP-1 (2 μg/mL) in Coating Buffer (0.1 M Carbonate Buffer, pH 9.6, NaHCO₃8.4 g/L), then incubated at 4° C. overnight. After incubation, the plates were washed with Washing Buffer (0.05% Tween 20 in PBS) three times. 200 μl/well Blocking Buffer (0.5% BSA, 0.1% Tween 20, 0.01% Thimerosal in 1× PBS) were added and the plates incubated at room temperature for 1 hour. After incubation, the plates were washed with Washing Buffer three times. 50 μL/well of hybridoma supernatants, and positive and negative controls were added and the plates incubated at room temperature for 2 hours.
(§2) The positive control used throughout was XMG2 MCP-1 Group 1, footpad N160-7 and the negative control was XMG2 KLH Group 1, footpad L627-6. After incubation, the plates were washed three times with Washing Buffer. […] In the secondary screen, three sets of samples (positives in first screening) were screened, one set for hIgG detection, one set for hKappa detection, and one set for hlambda detection. After incubation, the plates were washed three times with Washing Buffer. 100 μL/well of TMB (BioFX Lab. Cat. #TMSK-0100-01) were added and the plates allowed to develop for about 10 minutes (until negative control wells barely started to show color), then 50 μL/well stop solution (TMB Stop Solution (BioFX Lab. Cat. #STPR-0100-01) were added and the plates read on an ELISA plate reader at wavelength 450 nm. The OD readings from the positive wells are presented in Table 9.

[2] = target: T5, human monocyte chemo-attractant …; experiment: cell-based or functional assay
[3] = target: T5, human monocyte chemo-attractant …; experiment: ELISA, coated antigen
Method: (§3) Determining cross-reactivity of anti-MCP-1 antibodies with other chemokines. ELISA plates (Fisher Cat. No. 12-565-136) were coated with 50 μl/well of MCP-1, MCP-2, MCP-3, MCP-4, RANTES, GRO-alpha, MIP-1 alpha, eotaxin, rat MCP-1 and mouse JE (2 μg/ml) in coating buffer (0.1 M carbonate buffer, pH 9.6, NaHCO₃ 8.4 g/L, then incubated at 4° C. overnight. After incubation, the plates were washed with washing buffer (0.05% Tween 20 in PBS) three times. 200 μL/well blocking buffer (0.5% BSA, 0.1% Tween 20, 0.01% Thimerosal in 1×PBS) were added and the plates incubated at room temperature for 1 hour. After incubation, the plates were washed with washing buffer three times. 50 μL/well of hybridoma supernatants, and positive and negative controls (positive control was anti-MCP-1 antibody purchased from R&D Sciences, and negative control was an antibody to Keyhole Limpet Hemocyanin produced at Abgenix) were added and the plates incubated at room temperature for 2 hours. After incubation, the plates were washed three times with washing buffer. […] After incubation, the plates were washed three times with washing buffer and 100 μL/well of TMB (BioFX Lab. Cat. #TMSK-0 100-01) was added and the plates allowed to develop for about 10 minutes.

human RANTES = target: T1, human RANTES; experiment: ELISA, coated antigen
Method: as §3

human GRO/MGSA = target: T2, human GRO/MGSA; experiment: ELISA, coated antigen
Method: as §3

human eotaxin = target: T6, human eotaxin (human, UniProt P51671 24-97); experiment: ELISA, coated antigen
T6 construct: also called hEotaxin
T6 sequence (P51671 24-97 limits assumed): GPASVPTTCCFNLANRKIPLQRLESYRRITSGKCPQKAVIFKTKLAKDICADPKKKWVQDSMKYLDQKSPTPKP
Method: as §3

[4] = target: T7, recombinant mouse JE/MCP-1 (mouse, UniProt P10148 24-148); experiment: ELISA, coated antigen
T7 construct: also called rmJE/MCP-1
T7 sequence (P10148 24-148 limits assumed): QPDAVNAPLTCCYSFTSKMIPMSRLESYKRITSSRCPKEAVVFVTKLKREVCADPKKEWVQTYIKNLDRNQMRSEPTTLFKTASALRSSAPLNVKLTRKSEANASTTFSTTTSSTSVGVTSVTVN
Method: as §3

recombinant human MCP-4 = target: T8, recombinant human MCP-4 (human, UniProt Q99616 24-98, limits assumed); experiment: ELISA, coated antigen
T8 construct: also called rhMCP-4
T8 sequence (Q99616 24-98 limits assumed): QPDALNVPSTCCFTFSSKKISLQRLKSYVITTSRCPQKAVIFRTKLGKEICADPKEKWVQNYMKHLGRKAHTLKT
Method: as §3

rat MCP-1 = rat MCP-1 (rat, UniProt P14844 24-148); experiment: ELISA, coated antigen
rat MCP-1, sequence (P14844 24-148 limits assumed): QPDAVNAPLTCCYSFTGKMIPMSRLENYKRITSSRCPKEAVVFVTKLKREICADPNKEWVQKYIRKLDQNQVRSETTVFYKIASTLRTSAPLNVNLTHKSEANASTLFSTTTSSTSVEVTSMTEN
Method: as §3

recombinant human MCP-3 = target: T9, recombinant human MCP-3 (human, UniProt P80098 24-99); experiment: ELISA, coated antigen
T9 construct: also called rhMCP-3
T9 sequence (P80098 24-99 limits assumed): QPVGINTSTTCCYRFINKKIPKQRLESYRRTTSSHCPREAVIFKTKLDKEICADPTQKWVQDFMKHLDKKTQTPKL
Method: as §3

human MIP-1-alpha = target: T3, human MIP-1-alpha; experiment: ELISA, coated antigen
Method: as §3

recombinant human MCP-2 = target: T4, recombinant human MCP-2; experiment: ELISA, coated antigen
Method: as §3

[5] = target: T5, human monocyte chemo-attractant …; experiment: ELISA, hybridoma supernatant on coated MCP-1; ELISA, hybridoma supernatant on plate-coated non-reduced MCP-1 (2 ug/mL)
Method: as §1, §2

[6] = target: T5, human monocyte chemo-attractant …; experiment: ELISA, coated antigen; ELISA, purified clone 1:50 on coated hMCP-1 (2 ug/mL), cross-reactivity panel
Method: as §3

[7] = target: T5, human monocyte chemo-attractant …; experiment: Biacore, mAb immobilized, MCP-1 injected; Biacore, 25 C, native MCP-1 injected over immobilized mAb
Method: Determination of anti-MCP-1 antibody affinity using Biacore analysis. The antibody/MCP-1 interaction analysis was performed at 25° C. using two CM5 chips docked in Biacore 3000 optical biosensors. Individual flow cells on each chip were activated with a 7-minute injection of NHS/EDC, carbohydrazide was coupled through the NHS ester using a 7-minute injection, and the residual activated groups were blocked with a 7-minute injection of ethanolamine. The monosaccharide residues of each antibody were oxidized using 1 mM sodium metaperiodate in 100 mM sodium acetate, pH 5.5 at 4° C. for 30 minutes. The oxidized antibody was desalted into 100 mM sodium acetate, pH 5.0, to couple the antibody to the carbohydrazide-modified surface. The mAb surfaces were stabilized by reducing the hydrazone bond with 0.1 M sodium cyanoborohydride. The antigen/antibody interaction was tested by injecting 0, 0.049, 0.15, 0.4, 1.3, 4 and 12 nM of MCP-1 (Peprotech, N.J.) in running buffer (10 mM HEPES, 150 mM NaCl, 0.005% surfactant, 200 μg/ml BSA, pH 7.4). The surfaces were regenerated with a 12-second pulse of 15 mM H₃PO₄. The antigen/antibody interaction was tested by injecting duplicate antigen samples diluted in running buffer (10 mM HEPES, […], 0.005% surfactant, 200 μg/mL BSA, pH 7.4), in a 300-fold concentration range. The surfaces were regenerated with a 12-second pulse of 15 mM H₃PO₄. To determine the kinetics of each interaction, the data sets were fit globally to a 1:1 interaction model that included a parameter for mass transport.

Binder | ELISA OD-MCP-1 [1] [OD450] | IC50 Ca++ Flux [2] [µg/mL] | IC50 Chemotaxis [2] [µg/mL] | ELISA OD [3] [OD450] | ELISA OD (human RANTES) [OD450] | ELISA OD (human GRO/MGSA) [OD450] | ELISA OD (human eotaxin) [OD450] | ELISA OD [4] [OD450] | ELISA OD (recombinant human MCP-4) [OD450] | ELISA OD (rat MCP-1) [OD450] | ELISA OD (recombinant human MCP-3) [OD450] | ELISA OD (human MIP-1-alpha) [OD450] | ELISA OD (recombinant human MCP-2) [OD450] | ELISA OD-MCP-1 [5] [OD450] | ELISA OD [6] [OD450] | Kd [7] [pM]
B1 | 4 | 3.5 | 1.3 | 0.521 | 0.043 | 0.044 | 0.042 | 0.044 | 0.043 | 0.054 | 0.05 | 0.043 | 0.051 |  |  | 
B2 |  | 0.11 | 0.35 |  | 0.039 | 0.041 | 0.04 | 0.041 | 0.041 | 0.042 | 0.053 | 0.04 | 0.044 | 3.52 | 1.17 | 4.9
B3 |  | 0.14 | 0.58 |  | 0.055 | 0.062 | 0.045 | 0.054 | 0.064 | 0.058 | 0.059 | 0.067 | 0.052 | 3.88 |  | 96
B4 | 3.84 | 0.39 | 0.45 | 0.744 | 0.046 | 0.046 | 0.042 | 0.042 | 0.044 | 0.062 | 0.046 | 0.046 | 0.042 |  |  | 
B5 | 4 | 0.22 | 0.29 | 1.14 | 0.044 | 0.042 | 0.043 | 0.042 | 0.039 | 0.091 | 0.043 | 0.041 | 0.041 |  |  | 
B6 |  | 0.094 | 0.98 |  | 0.067 | 0.045 | 0.043 | 0.046 | 0.048 | 0.048 | 0.048 | 0.049 | 0.043 | 4 | 1.28 | 4.8
B7 | 4 | 0.11 | 0.51 | 0.738 | 0.046 | 0.044 | 0.043 | 0.042 | 0.045 | 0.05 | 0.049 | 0.041 | 0.046 |  |  | 
